Consider 22 substances from IntAct's records for PubMed 31515488.

Targets include gt253_human CERCAM (UniProt Q5T4B2); vtnc_human VTN (UniProt P04004); cep63_human CEP63 (UniProt Q96MT8); txnd5_human TXNDC5 (UniProt Q8NBS9); ut14c_human UTP14C (UniProt Q5TAP6); sdcb1_human SDCBP (UniProt O00560); prp31_human PRPF31 (UniProt Q8WWY3); lmo4_human LMO4 (UniProt P61968); mare1_human MAPRE1 (UniProt Q15691); fxl18_human FBXL18 (UniProt Q96ME1); TSC22D4 (UniProt Q9Y3Q8); hem1_human ALAS1 (UniProt P13196); vps29_human VPS29 (UniProt Q9UBQ0); mtus2_human MTUS2 (UniProt Q5JR59); traf1_human TRAF1 (UniProt Q13077).

The target of the next assay is T1, mycd_human MYOCD (UniProt Q8IZQ8).
T1 sequence: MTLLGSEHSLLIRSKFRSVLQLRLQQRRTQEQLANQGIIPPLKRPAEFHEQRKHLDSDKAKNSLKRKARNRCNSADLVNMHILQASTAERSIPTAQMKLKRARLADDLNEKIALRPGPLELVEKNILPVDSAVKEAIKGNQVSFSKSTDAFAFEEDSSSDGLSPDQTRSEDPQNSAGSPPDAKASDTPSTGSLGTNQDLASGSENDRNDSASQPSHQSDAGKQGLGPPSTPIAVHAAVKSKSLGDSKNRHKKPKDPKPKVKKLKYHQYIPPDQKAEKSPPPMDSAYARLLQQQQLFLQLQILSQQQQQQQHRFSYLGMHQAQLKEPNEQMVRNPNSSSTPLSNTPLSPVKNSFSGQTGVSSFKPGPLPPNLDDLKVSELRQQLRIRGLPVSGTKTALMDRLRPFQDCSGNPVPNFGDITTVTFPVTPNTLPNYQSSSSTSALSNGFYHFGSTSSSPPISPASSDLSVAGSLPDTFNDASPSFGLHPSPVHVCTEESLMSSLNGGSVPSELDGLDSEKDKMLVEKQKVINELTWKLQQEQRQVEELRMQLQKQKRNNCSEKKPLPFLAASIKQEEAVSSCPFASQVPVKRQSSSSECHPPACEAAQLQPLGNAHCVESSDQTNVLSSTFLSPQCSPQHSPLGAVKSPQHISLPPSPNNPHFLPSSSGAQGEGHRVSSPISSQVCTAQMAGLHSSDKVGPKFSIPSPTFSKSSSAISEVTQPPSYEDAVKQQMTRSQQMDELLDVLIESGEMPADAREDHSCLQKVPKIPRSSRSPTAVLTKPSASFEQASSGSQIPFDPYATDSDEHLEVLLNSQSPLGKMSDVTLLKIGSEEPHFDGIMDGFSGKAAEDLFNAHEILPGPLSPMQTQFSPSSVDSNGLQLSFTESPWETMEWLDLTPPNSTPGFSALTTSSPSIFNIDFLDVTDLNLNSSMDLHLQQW

The target in a further assay is T2, goga2_human GOLGA2 (UniProt Q08379).
T2 sequence: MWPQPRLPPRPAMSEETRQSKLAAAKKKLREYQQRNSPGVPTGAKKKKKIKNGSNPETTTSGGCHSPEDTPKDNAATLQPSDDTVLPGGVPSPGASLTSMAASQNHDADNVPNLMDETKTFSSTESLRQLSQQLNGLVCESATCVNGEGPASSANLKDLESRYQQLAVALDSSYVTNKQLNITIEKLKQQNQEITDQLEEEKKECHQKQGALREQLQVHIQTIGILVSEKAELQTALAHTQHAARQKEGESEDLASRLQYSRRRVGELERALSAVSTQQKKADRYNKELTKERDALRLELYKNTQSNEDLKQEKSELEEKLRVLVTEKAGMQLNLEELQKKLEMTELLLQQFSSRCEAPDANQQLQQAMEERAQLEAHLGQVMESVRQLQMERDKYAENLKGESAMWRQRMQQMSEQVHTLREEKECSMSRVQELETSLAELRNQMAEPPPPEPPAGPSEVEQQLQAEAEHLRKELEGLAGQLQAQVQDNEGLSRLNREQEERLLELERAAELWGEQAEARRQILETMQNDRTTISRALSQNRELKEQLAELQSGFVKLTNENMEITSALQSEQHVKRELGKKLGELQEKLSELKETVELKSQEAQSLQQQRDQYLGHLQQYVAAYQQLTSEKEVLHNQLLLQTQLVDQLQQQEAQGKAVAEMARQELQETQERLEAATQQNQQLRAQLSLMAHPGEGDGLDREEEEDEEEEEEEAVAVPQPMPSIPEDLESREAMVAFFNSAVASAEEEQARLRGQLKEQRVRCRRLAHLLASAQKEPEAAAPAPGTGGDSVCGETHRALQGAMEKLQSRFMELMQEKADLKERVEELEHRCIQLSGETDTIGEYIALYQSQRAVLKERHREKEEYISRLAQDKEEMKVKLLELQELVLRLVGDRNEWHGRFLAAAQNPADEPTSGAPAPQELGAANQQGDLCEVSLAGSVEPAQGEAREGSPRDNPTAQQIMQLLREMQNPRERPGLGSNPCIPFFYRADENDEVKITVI

For another assay, the target named is T3, fsd2_human FSD2 (UniProt A1L4K1).
T3 sequence: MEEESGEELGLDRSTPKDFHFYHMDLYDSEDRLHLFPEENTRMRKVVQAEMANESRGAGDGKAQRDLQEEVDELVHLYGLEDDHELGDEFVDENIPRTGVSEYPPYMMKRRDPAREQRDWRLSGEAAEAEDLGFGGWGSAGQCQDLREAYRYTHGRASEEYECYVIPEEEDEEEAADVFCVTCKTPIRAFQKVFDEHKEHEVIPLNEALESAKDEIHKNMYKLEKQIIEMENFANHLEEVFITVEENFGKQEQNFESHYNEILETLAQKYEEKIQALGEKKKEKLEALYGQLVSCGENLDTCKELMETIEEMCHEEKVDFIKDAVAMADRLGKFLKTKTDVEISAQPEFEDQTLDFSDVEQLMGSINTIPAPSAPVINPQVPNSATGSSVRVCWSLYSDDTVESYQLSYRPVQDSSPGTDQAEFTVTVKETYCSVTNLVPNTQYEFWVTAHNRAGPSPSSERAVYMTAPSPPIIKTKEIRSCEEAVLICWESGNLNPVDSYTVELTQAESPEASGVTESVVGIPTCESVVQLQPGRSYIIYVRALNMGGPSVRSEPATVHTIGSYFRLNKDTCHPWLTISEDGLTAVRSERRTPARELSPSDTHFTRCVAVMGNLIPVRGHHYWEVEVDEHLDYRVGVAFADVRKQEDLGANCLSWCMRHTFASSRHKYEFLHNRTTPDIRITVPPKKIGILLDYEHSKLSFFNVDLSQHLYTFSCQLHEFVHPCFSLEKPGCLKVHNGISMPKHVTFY

With “Golgi-associated PDZ and coiled-coil motif-containing protein (Homo sapiens) (from UniProt Q9HD26) G53E”, the “effect of a mutation on the interaction” value in the assay with gt253_human CERCAM, in the assay with vtnc_human VTN and with mycd_human MYOCD was “disrupting interaction strength” each time.

Regarding “Histone-lysine N-methyltransferase EZH2 (Homo sapiens), Q15910-2 N640K”, the “effect of a mutation on the interaction” value in the assay with cep63_human CEP63 is recorded as “with no effect”.

With “Histone-lysine N-methyltransferase EZH2 (Homo sapiens), Q15910-2 R288Q”, the “effect of a mutation on the interaction” value with cep63_human CEP63 is recorded as “with no effect”.

Consider “Mannose-1-phosphate guanylyltransferase catalytic subunit beta (Homo sapiens), Q9Y5P6 H126D”, for which, in the assay with txnd5_human TXNDC5, the “effect of a mutation on the interaction” value was “with no effect”.

Consider “Mannose-1-phosphate guanylyltransferase catalytic subunit beta (Homo sapiens), Q9Y5P6 R158Q”, for which the “effect of a mutation on the interaction” value with txnd5_human TXNDC5 is “with no effect”.

As for Myomegalin (Homo sapiens), Q5VU43 E391A, the “effect of a mutation on the interaction” value with ut14c_human UTP14C, in the assay with sdcb1_human SDCBP, with prp31_human PRPF31, with lmo4_human LMO4 and in the assay with mare1_human MAPRE1 was “with no effect” throughout.

Take Myomegalin (Homo sapiens), Q5VU43 I612T: the “effect of a mutation on the interaction” value in the assay with ut14c_human UTP14C, in the assay with sdcb1_human SDCBP, in the assay with prp31_human PRPF31, in the assay with lmo4_human LMO4 and in the assay with mare1_human MAPRE1 was “with no effect” in each case.

Turning to Myomegalin (Homo sapiens), Q5VU43 M783I, the “effect of a mutation on the interaction” value with ut14c_human UTP14C, with sdcb1_human SDCBP, in the assay with prp31_human PRPF31, in the assay with lmo4_human LMO4 and with mare1_human MAPRE1 was “with no effect” throughout.

On to “NEDD4-like E3 ubiquitin-protein ligase WWP2 (Homo sapiens), O00308 R178Q”, for which the “effect of a mutation on the interaction” value in the assay with fxl18_human FBXL18 is listed as “with no effect”.

On to “Nuclear receptor-binding protein (Homo sapiens), Q9UHY1 P432L”, for which the “effect of a mutation on the interaction” value with TSC22D4 is “with no effect”.

Turning to “Nuclear receptor-binding protein (Homo sapiens), Q9UHY1 V365I”, in the assay with TSC22D4, the “effect of a mutation on the interaction” value is recorded as “with no effect”.

Take “Parafibromin (Homo sapiens) (from UniProt Q6P1J9) L95P”: the “effect of a mutation on the interaction” value in the assay with hem1_human ALAS1, with goga2_human GOLGA2 and with fsd2_human FSD2 was “disrupting interaction strength” in each case.

With “Parafibromin (Homo sapiens) (from UniProt Q6P1J9) R147C”, the “effect of a mutation on the interaction” value in the assay with hem1_human ALAS1, in the assay with goga2_human GOLGA2 and with fsd2_human FSD2 was “with no effect” in each case.

On to “Parafibromin (Homo sapiens) (from UniProt Q6P1J9) R156H”, for which the “effect of a mutation on the interaction” value with hem1_human ALAS1, with goga2_human GOLGA2 and in the assay with fsd2_human FSD2 was “with no effect” in each case.

On to “Vacuolar protein sorting-associated protein 35 (Homo sapiens) (from UniProt Q96QK1) D620N”, for which the “effect of a mutation on the interaction” value with vps29_human VPS29 is reported as “with no effect”.

As to “Vacuolar protein sorting-associated protein 35 (Homo sapiens) (from UniProt Q96QK1) L227F”, in the assay with vps29_human VPS29, the “effect of a mutation on the interaction” value is “with no effect”.

For the substance “Vacuolar protein sorting-associated protein 35 (Homo sapiens) (from UniProt Q96QK1) R524W”, the “effect of a mutation on the interaction” value in the assay with vps29_human VPS29 was “with no effect”.

On to “Zinc finger protein 224 (Homo sapiens), Q9NZL3 K640E”, for which the “effect of a mutation on the interaction” value with mtus2_human MTUS2 is “with no effect”.

Take “Zinc finger protein 224 (Homo sapiens), Q9NZL3 Q447H”: in the assay with mtus2_human MTUS2, the “effect of a mutation on the interaction” value is listed as “with no effect”.

Turning to “Zinc finger protein 502 (Homo sapiens), Q8TBZ5 E243A”, the “effect of a mutation on the interaction” value with traf1_human TRAF1 is “with no effect”.

As to “Zinc finger protein 502 (Homo sapiens), Q8TBZ5 Q174R”, the “effect of a mutation on the interaction” value with traf1_human TRAF1 was “with no effect”.

As to “Zinc finger protein 502 (Homo sapiens), Q8TBZ5 T184A”, the “effect of a mutation on the interaction” value with traf1_human TRAF1 is on record as “with no effect”.
